# B1: TPR t1 (parent)
# chain: GACCAAUCUGCCCUCAGAGCUCGAGAACAUCUUCGGAUGCAGAGGAGGCAGGCUUCGGUGGCGCGAUAGCGCCAACGUCCUCAACCUCCAAUGCAUCCCACCACAUGAUGAUGCCUGAAGAGCCUUGGUUUUUUG
# Variants of: B1
# Assay: polymerase ribozyme fitness, log enrichment relative to wild type (log ratio); higher = more active; in vitro selection for triplet polymerase activity
# Method in brief: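 Each subunit of a heterodimeric triplet polymerase ribozyme was mutagenized into a library by PCR, transcribed, and subjected to one round of in vitro selection, run in triplicate. Libraries were annealed with a biotinylated primer, the partner subunit and triplets, incubated frozen at −7 °C, and extended constructs were gel-excised, captured on streptavidin beads and recovered by RT-PCR. Input and output libraries were sequenced on Illumina, keeping genotypes with ≥10 input reads and ≥1 read per output. Fitness is log base 2 of genotype enrichment divided by wild-type enrichment, from inverse-variance-weighted replicate averages.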
row,Variant,polymerase ribozyme fitness (log ratio)
1,C49A A91G G93U G117U G135A,-6.28
2,G44U A50U G60C C101A C115A,-4.05
3,U7G C40U A43G G44U C70U U112C,-0.649
4,G25C G58A C64A A83C G110C,-6.43
5,C11A G113A C114U U133G,-5
6,G44A G61U C99U,-4.04
7,C56U C64A,-7.74
8,A37G U38G G61U C104U C124G,-4.81
9,A29C C124A,-0.296
10,C15A C53U A66U,-4.71
11,A5U C11G A91G,-0.601
12,U9C C40A G42C C73A C101A G122A U130A,-1.67
13,G10U G77A C79U C94U,-0.432
14,G52U C124A,0.485
15,U81G G113C,-4.85
16,C8G G48C A50U C53A C62G U129C,-2.9
17,C12U G17U A50G G63U,-3.39
18,A6U C13A A16U C49A G63A C101A,-4.21
19,U106A U112A U129C,0.363
20,U9G C28A U133A,-4.24
21,U32C G48A G52U C114A,-4.17
22,C12G U78C,-0.718
23,G10A G44A A46U G48C,-1.66
24,C72G U81C C104G C115U U133A,-6.64

row,Variant,polymerase ribozyme fitness (log ratio)
1,G36U G69U,-0.697
2,C20U U109A,-4.34
3,C20G G25C,-6.42
4,A16U G36C C62A A121C,-1.88
5,G61U U92G U126A U129G,-5.18
6,U7A A84C U116C,-0.218
7,C34U C62G,-6.83
8,G10C G128C,-3.1
9,A41U C97U,-2.14
10,C62A G110A U126G,-3.4
11,C11U G117U,-2.72
12,U32G G57A C123U,-7.55
13,C49A U96A,-1.29
14,C13A C73U C79U U132A,-1.98
15,A5G C22G C73G G93U G110A,-6.4
16,C76A A83C,-0.201
17,G10U C40A G77A G128U,-3.6
18,G61U G107C,-4.98
19,G48A C64G U81A C89A,-7.34
20,G61U C88A,-1.18
21,C40A C56A C97U,-1.12
22,U38A G48U C49A U87A C115A,-3.9
23,C8A G44U,-0.208
24,A41U C62U,-1.86

row,Variant,polymerase ribozyme fitness (log ratio)
1,C8U G36C G63U,-1.95
2,G36A G57A,-1.38
3,C13A C22A C31A A46U G71A G120A,-6.56
4,C70U U87G,-0.364
5,A105C C115U,-4.02
6,A18U U38G C123A,-4.13
7,G39U C102A,-3.45
8,A46G C56U,-0.0715
9,G60C U132A,-0.171
10,G47U G58A G63U A90G G117C,-6.13
11,G35C,-4.55
12,A29G G52U C70U U125A,-2.42
13,C3U C13A G69U A121G,1.51
14,G61A C76U C97U,-4.24
15,A6U G60U,-0.858
16,C40A U81C,-1.68
17,G10C G60U C82A U96A G107U A119U,-6.51
18,C28U G52A,-2.18
19,C94U G128C,-4.18
20,C3G G47C,-3.72
21,U7C U14G A74C,-1.29
22,G113C U116G,-3.72
23,C12U C20U A46U U54C C56A U87G A91U,-3.03
24,C79A C88G,-2.33

row,Variant,polymerase ribozyme fitness (log ratio)
1,C13U A26C C56U,-5.2
2,U33G G120U,-5.27
3,U92C C115U,-2.72
4,G61A C79U C115A G120A,-0.74
5,A43C G69U C99U,-3.77
6,G110A U129C,-1.47
7,C11A C12U G25U C56U G69C C98U G110A,-6.12
8,U38C G110U G135U,-3.96
9,C56G C70U C88U U106A U133A,-1.55
10,C8A G35U G58C,-4.74
11,C49U G58U C62G A119U C124U,-1.37
12,G57C U78G U112A A118U,1.26
13,C49G G120C,1.11
14,C70U C88A,-0.884
15,A5U C8G C88U C97U G113C,-1.99
16,C102A C124A U130A,-0.438
17,G44C C70G A119U,-5.47
18,G71U C85G C88G C115A,-5.75
19,C72A G77C U92C G122A,-3.67
20,C56A C99U A121C,-2.01
21,C13G A18U A27G C53U C89A C104U,-5.29
22,G63U G77U U109A G135U,-7.04
23,C28U G71A C89A C123G U130C,-3.76
24,G63C A91G G113A,-2.9

row,Variant,polymerase ribozyme fitness (log ratio)
1,C11G G135U,-0.0424
2,C34A C73A C85U U130A,-4.99
3,A24U G110A,-6.09
4,A29U C73G,-1.92
5,G17A C114A,-5.13
6,G42A C73G C79A U130A,-5.42
7,A43C C85G A90G C98A,-7.04
8,A26U G71A C72U A90C U106A,-5.08
9,U7A G71C G110C,-6.39
10,C34A C114A,-4.47
11,G44U U109A,-5.43
12,G17U G69U,-0.0598
13,C22U A26G A119G G122A C123A,-2.69
14,A2C G63U A100U U133G,-3.47
15,C72A U109A,-4.06
16,A27G G58A A75G,-2.58
17,C12U A121U,2.4
18,U59A C64U C85A G110U U133C,-2.9
19,G45C A46U C72G,-2.36
20,C8A C49U A100U G120A,0.731
21,C8A G52U A91U U112A A118C U131C,-1.36
22,C4A G128C,-1.53
23,G60C U112A,0.838
24,C34A C70U G120C,-4.45

row,Variant,polymerase ribozyme fitness (log ratio)
1,G10U A46U C82G G127U,-3.03
2,G63U G93U C123U,-1.46
3,U87C C114U,-1.5
4,A5C A27C,-3.97
5,C15A C62U A84G C94U,-3.06
6,G48C G71A G110A G120A,-3.66
7,C20U C73U A95C U129A,-4.3
8,A26G A29C,-3.02
9,G39A C70U,-0.985
10,C4U A27U C64U A95C A111C A118G,-6.19
11,G17C G69U G120U G128A,-2.65
12,C12U A29G A50U A91G,-3.08
13,A6U C15G A37G,-1.93
14,C72U G77U A100C A118U U129C,-2.77
15,G60U U78C A90C G117U,-4.13
16,G61A C88U G113A G128U,-2.99
17,C8U C11A C124U,1.17
18,C12U A50U U59G G63A A119U,-2.52
19,A46U C53G,-0.865
20,G110A,-0.79
21,C22U G69U C82U C124G U126A,-0.7
22,A37U C79A U87G U96A A118U,-0.000648
23,G47C U78A,-1.42
24,A2U G19A,-4.15

row,Variant,polymerase ribozyme fitness (log ratio)
1,A119C C124A,-2.4
2,U32A G58A C94A,-5.83
3,C3A U7G G10A C49G C104U G110C C124U,-4.49
4,U21A G42U C98U C104U C114G C124A,-5.22
5,G61A A95U,0.338
6,U9A G77U C123U,1.84
7,G42U G120A,-1.14
8,C13A A105U,-3.91
9,C31G C53A G107C,-1.38
10,C86A G113C,-3.02
11,U7G G107U A121U G128C,-5.22
12,G10C C40U G45U,-1.47
13,A43G,-1.32
14,C11G A37C C53U,0.228
15,C56A G77C C124A,1.47
16,G47A C73A,-0.495
17,G42U A50C A83G C97G C99U U106A G113U C124A,-7.66
18,G10A C13A G39C U133A,-1.46
19,C82A C88A G113A,-1.71
20,G48A G51U,-2.61
21,A41U C114A,-3.03
22,G47U C73A C85U,-1.61
23,A26C G61C U112G,-5.78

# From the RNAGym collection of RNA variant scans (doi:10.1073/pnas.2313332121)
